Test results from US20240261333A1 (published 2024).

Tests used:
FUBP3 = molecular target: T1, FUBP3 (human, UniProt Q96I24 2-572); experiment: co-IP, anti-FLAG, lysate of cells with N-FLAG B3GNT2; mass spectrometry
T1 construct: also called NP_003925.1 (+2)
T1 sequence (looked up): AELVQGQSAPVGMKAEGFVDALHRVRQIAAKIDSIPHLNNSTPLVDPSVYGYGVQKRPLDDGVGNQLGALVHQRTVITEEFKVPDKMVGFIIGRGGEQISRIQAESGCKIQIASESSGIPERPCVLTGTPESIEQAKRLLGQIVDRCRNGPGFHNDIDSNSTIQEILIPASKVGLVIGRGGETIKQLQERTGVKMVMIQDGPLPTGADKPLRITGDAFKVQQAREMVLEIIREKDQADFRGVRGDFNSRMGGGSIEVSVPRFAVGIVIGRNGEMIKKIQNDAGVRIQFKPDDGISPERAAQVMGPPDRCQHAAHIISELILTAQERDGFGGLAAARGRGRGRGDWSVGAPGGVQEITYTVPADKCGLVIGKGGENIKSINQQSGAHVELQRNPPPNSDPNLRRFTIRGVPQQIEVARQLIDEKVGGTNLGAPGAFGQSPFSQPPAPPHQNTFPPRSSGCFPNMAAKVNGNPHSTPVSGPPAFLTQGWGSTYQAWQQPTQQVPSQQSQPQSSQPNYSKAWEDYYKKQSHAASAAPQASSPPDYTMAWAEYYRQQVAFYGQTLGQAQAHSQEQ
Method: (§1) Cells were plated in 10-cm cell culture dishes and grown to 60-80% confluency. For each condition, two biological replicates were harvested for co-IP. Cells were washed with PBS and 4 mL of lysis buffer (20 mM HEPES, 1% Triton X-100, 150 mM NaCl, 1 mM EDTA, and 10% glycerol) containing protease inhibitor cocktail was added. Cells were scraped and lysate was incubated at 4° C. under rotary agitation for 1 h. Lysate was centrifuged at 14,000×g for 10 min at 4° C. Supernatant was transferred to a new tube and an aliquot was taken as the input. […] For Western blots, 10 μg/mL Chicken Anti-FLAG (Aves labs ET-DY100) and IgY control (R&D Systems AB-101-C) antibodies were biotinylated (Thermo Fisher Scientific 90407) and added to the respective conditions. Lysates with antibodies were incubated at 4° C. under rotary agitation overnight. For each mL of lysate, 50 μL of Pierce Protein A/G Magnetic Beads (Mass spectrometry; Thermo Fisher Scientific 88803) or Pierce Streptavidin Magnetic Beads (Western blot; Thermo Fisher Scientific 88817) was washed twice with lysis buffer. Lysates with antibodies were added to the beads and incubated at 4° C. under rotary agitation for 4 h. Beads were washed with lysis buffer 3 times and resuspended in lysis buffer for storage.
(§2) Magnetic beads were resuspended in 100 mM Tris pH 7.8, reduced, alkylated and digested with trypsin at 37° ° C. overnight. This solution was subjected to solid phase extraction to concentrate the peptides and remove unwanted reagents followed by injection onto a Shimadzu HPLC with fraction collector. Eight fractions were collected and after concentration were injected on a Waters NanoAcquity HPLC equipped with a self-packed Aeris 3 μm C18 analytical column 0.075 mm by 20 cm, (Phenomenex). Peptides were eluted using standard reverse-phase gradients. The effluent from the column was analyzed using a Thermo Orbitrap Elite mass spectrometer (nanospray configuration) operated in a data dependent manner for 54 minutes. The resulting fragmentation spectra were correlated against the known database using Proteome Discover 1.4 (Thermo Fisher Scientific).

CSE1L = molecular target: T2, CSE1L (human, UniProt P55060-4 1-915, limits assumed); experiment: as above
T2 construct: also called NP_001243064.1 (+2)
T2 sequence (looked up): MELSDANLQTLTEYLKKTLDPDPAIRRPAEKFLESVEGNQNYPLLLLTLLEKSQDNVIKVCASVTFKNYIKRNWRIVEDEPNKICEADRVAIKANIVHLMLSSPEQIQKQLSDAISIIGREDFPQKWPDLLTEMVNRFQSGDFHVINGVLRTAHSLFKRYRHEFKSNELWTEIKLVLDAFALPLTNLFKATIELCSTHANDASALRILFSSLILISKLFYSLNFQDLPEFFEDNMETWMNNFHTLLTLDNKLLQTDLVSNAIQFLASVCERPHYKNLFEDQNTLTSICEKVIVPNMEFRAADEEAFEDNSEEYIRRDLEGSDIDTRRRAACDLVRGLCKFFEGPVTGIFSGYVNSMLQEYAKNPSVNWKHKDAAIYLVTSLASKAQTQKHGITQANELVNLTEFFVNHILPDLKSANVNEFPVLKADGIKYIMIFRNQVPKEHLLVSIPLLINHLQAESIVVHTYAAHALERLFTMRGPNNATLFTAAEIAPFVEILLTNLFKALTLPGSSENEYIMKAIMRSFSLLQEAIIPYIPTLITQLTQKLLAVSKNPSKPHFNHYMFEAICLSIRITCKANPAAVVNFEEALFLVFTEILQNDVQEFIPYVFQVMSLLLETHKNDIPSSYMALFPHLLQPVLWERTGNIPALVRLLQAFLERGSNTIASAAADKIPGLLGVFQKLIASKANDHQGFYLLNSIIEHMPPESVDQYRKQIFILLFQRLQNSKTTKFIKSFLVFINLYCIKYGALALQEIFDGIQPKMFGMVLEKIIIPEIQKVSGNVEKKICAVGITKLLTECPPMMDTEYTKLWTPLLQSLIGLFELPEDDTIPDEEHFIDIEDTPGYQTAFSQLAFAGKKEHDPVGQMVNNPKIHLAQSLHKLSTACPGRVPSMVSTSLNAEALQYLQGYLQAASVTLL
Method: as §1, §2

B1: N-terminal FLAG tagged B3GNT2 (enzyme, human, UniProt Q9NY97 1-397, looked up)
chain: MSVGRRRIKLLGILMMANVFIYFIMEVSKSSSQEKNGKGEVIIPKEKFWKISTPPEAYWNREQEKLNRQYNPILSMLTNQTGEAGRLSNISHLNYCEPDLRVTSVVTGFNNLPDRFKDFLLYLRCRNYSLLIDQPDKCAKKPFLLLAIKSLTPHFARRQAIRESWGQESNAGNQTVVRVFLLGQTPPEDNHPDLSDMLKFESEKHQDILMWNYRDTFFNLSLKEVLFLRWVSTSCPDTEFVFKGDDDVFVNTHHILNYLNSLSKTKAKDLFIGDVIHNAGPHRDKKLKYYIPEVVYSGLYPPYAGGGGFLYSGHLALRLYHITDQVHLYPIDDVYTGMCLQKLGLVPEKHKGFRTFDIEEKNKNNICSYVDLMLVHSRKPQEMIDIWSQLQSAHLKC
notes: Overexpressed in cells and pulled down from the lysate with mouse anti-FLAG antibody; also called N-FLAG B3GNT2; N-term FLAG; not shown: N-terminal FLAG tag
co-IP mass spectrometry count (FUBP3): 8 | co-IP mass spectrometry count (CSE1L): 0
